From the Human Domainome abundance scans (Beltran et al. 2025)

B1: Pituitary-specific positive transcription factor 1, residues 130 to 198; numbered along this chain, P28069 (parent)
chain: RELEKFANEFKVRRIKLGYTQTNVGEALAAVHGSEFSQTTICRFENLQLSFKNACKLKAILSKWLEEAE
B2: POU domain, class 4, transcription factor 1, residues 266 to 347; numbered along this chain, Q01851 (parent)
chain: RELEAFAERFKQRRIKLGVTQADVGSALANLKIPGVGSLSQSTICRFESLTLSHNNMIALKPILQAWLEEAEGAQREKMNKP

Variants of: B1
Assay: abundance fitness (aPCA) (normalised: wild type 0, dead -1); higher = more abundant; growth selection in yeast, the domain comes from the species named
Conditions: Homo sapiens

Abundance fitness: each site, then its substitutions
E66: F -0.242, M -0.332, Q -0.193, G -0.373, C -0.108, A -0.054, S -0.335, V -0.123, I -0.281, K -0.296, Y -0.304, W -0.562, R -0.241, D -0.037, H -0.334, N -0.373, T -0.115
K63: T 0.022, R -0.152, A 0.025, Y -0.508, G -0.153, M -0.155, Q -0.157, S -0.069, I -0.326, W -0.589, V -0.155, F -0.799, H 0.039, E 0.077, C -0.443, P -0.303, L -0.3, D 0.112
E69: Q -0.635, F -0.616, A -0.436, S -0.4, C -0.537, V -0.874, D -0.28, R -0.706, P -0.433, L -0.719
A68: C -0.752, L -0.778, M -0.061, T -0.05, E -0.003, I 0.128, K 0.047, N -0.24, R -0.232, H -0.271, G -0.664, S -0.518, F -0.747, D -0.78, V -0.071
W64: C -0.164, S -0.722, Q -0.643, K -0.461, R -0.79, T -0.684, A -0.496, V -0.966, G -0.568, F -0.398, L -0.795, N -0.475
S62: P -0.909, K -0.3, R -0.377, W -0.009, L -0.144, V -0.167, Q 0.047, T 0.014, Y -0.585, N -0.438
E67: P -0.721, D 0.002, K -0.18, F -0.49, C -0.301, H -0.34, Q -0.125, A -0.214, T -0.371, W -0.203, N -0.134, Y -0.36, V -0.39, S -0.088, L -0.594, R -0.172
L65: R -0.748, F -0.884, Y -0.833, K -0.75, V -0.38, G -0.791, S -0.636, D -0.85, P -0.752, H -0.887, T -0.935, M -0.374, E -0.779, W -0.719, I 0.105, A -0.772, N -0.955

Variants of: B2
Assay: as above
Conditions: Homo sapiens

Abundance fitness, by site and new letter:
R9: K -0.143, Q -0.043, T 0.058, Y -0.035, L 0.061, H -0.003, I -0.004, G -0.015, M 0.005, N 0.012, C -0.007, E -0.019, F -0.178, V -0.047, W -0.154, D -0.122
E2: L -0.332, V -0.345, D 0.023, Y -0.236, Q -0.16, M -0.17, I -0.266, G -0.102, R -0.266, K -0.069, A -0.267, H -0.194, W -0.508, S -0.139, C -0.306, N 0.025, T -0.195, P -0.437, F -0.245
L3: I -0.02, N -0.287, R -0.622, W -0.352, G -0.523, F -0.103, D -0.366, Y -0.107, C -0.901, Q -0.262, M -0.029, E -0.247, T -0.26, K -0.564, S -0.374, V -0.053, H -0.203, A -0.162
R1: N 0.02, V -0.09, C -0.053, E 0.007, G -0.05, I 0.039, A -0.132, W -0.134, Y -0.076, T -0.011, S -0.026, Q -0.325, D 0.008, L -0.084, H -0.326, F 0.028, M 0.004
Q12: D -0.027, N 0.031, L -0.078, Y -0.13, S -0.06, I -0.144, M -0.034, G -0.205, A -0.004, P -0.896, K -0.029, F -0.133, T -0.021, V -0.117, C -0.466, W -0.339, R -0.14, H -0.097, E 0.015
A7: K -0.489, C -0.018, V 0.007, R -0.594, Q -0.712, T -0.138, Y -0.708, H -0.668, S -0.203, L -0.656, M -0.395, G -0.594, F -0.721, N -0.582, D -1.11, E -0.884, P -0.525
F10: E -0.916, H -0.92, Y -0.599, W -0.237, Q -1.04, P -0.908, G -0.897, L -0.515, M -0.56, N -0.822, D -0.804, T -0.853, A -0.762, I -0.676, R -0.996, C -0.867, K -0.9, S -0.914
E8: C -0.238, P -0.749, T -0.078, N 0.063, I -0.234, S 0.014, Y -0.017, V 0.015, Q -0.019, H -0.164, L 0.018, M -0.069, A -0.008, G -0.048, W -0.284, F -0.223, R -0.002, D -0.13
F6: V -0.378, E -0.359, P -0.951, I -0.318, Q -0.622, D -0.442, G -0.906, L -0.362, T -0.452, W -0.139, R -0.987, N -0.79, K -1, C -0.478, S -0.516
R13: G 0.013, E -0.065, C -0.369, I -0.09, A -0.026, H -0.103, F -0.203, D -0.253, L -0.148, K -0.048
K11: N -0.422, W -0.707, H 0.175, Y -0.642, S -0.104, V -0.142, L -0.406, R 0.023, T -0.017, E -0.476, A -0.023, M -0.117, P -0.833, F -0.627, Q -0.107, I -0.293, G -0.465
A5: L 0.037, G -0.039, Y -0.171, I 0.184, M 0.016, H -0.063, T -0.065, F 0.042, S -0.005, N 0.106, V -0.06, R 0.006, P -0.451, C -0.162, Q 0.047, K 0.042, D -0.043
E4: C -0.149, P -0.361, I 0.107, T -0.031, G -0.166, H 0.108, L -0.134, S -0.091, R -0.065, W -0.057, A -0.071, K 0.056, Y -0.153, N -0.086, F -0.054, M 0.04, D -0.031, Q -0.035
